Results published in US20140378382A1.

Assays:
[1] = biological target: PTHR-1 (species and cells not stated for the assay) (Homo sapiens (Human)) (UniProt Q03431); assay: cell-based or functional assay
[2] = biological target: parathyroid hormone receptor-2 (PTHR-2); assay: cell-based or functional assay

Chain of PTHR-1 (species and cells not stated for the assay) (Homo sapiens (Human)) (Q03431 27-593 limits assumed, form in doubt): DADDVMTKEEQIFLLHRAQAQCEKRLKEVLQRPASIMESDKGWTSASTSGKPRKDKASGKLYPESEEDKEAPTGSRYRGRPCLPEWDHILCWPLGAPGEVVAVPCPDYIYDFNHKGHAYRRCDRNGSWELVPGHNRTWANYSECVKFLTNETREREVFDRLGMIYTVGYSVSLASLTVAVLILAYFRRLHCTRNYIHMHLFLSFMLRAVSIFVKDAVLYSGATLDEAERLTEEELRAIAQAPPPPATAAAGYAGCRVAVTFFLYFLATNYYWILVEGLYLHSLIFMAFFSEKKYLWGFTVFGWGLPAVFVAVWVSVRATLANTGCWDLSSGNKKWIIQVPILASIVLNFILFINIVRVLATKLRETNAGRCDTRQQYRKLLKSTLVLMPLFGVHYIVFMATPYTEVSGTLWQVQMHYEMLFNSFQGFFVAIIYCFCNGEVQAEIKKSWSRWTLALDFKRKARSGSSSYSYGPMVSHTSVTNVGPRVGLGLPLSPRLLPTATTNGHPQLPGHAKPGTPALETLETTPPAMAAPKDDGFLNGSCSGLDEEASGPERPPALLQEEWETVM

Substance | cAMP response PTH1R/PTH2R [1] | cAMP response PTH2R/PTH1R [2]
hTIP(1-39) (from UniProt Q96A98 62-100) (peptide) | 0.01 | 165
hPTHrP(1-36) (from UniProt P12272 37-72) (peptide) | 27 | 0.04
